Data taken from patent US20260139066A1 (VRIJE UNIVERSITEIT BRUSSEL, published 2026).

T1: canine urokinase plasminogen activator receptor, recombinant protein (canine)
T1 construct: Recombinant c uPAR produced by VIB (Ghent); also called c uPAR; canine uPAR
T1 chain: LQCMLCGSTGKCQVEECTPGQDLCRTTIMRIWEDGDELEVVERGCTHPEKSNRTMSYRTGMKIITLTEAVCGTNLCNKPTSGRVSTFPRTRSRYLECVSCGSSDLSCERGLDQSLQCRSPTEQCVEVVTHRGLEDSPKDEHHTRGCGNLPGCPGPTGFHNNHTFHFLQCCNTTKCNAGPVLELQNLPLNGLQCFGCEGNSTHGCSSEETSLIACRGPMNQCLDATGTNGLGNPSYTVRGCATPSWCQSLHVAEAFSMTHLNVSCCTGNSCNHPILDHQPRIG

B1: sdAb 15 (clone 5A4) with carboxy-terminal hexahistidine tag (VHH)
VHH: QVQLQESGGGWVQPGGSLRLSCAASGFTLDYYGIGWFRQAPGKEREGVSCISSSDGSTYYADSVKGRFTISRDNAKNTVYLQMNSLKPEDTAVYYCATRGASCYYTGSYSLGYDYWGQGTQVTVSS
notes: Lead compound; C-terminal 6His for purified-protein SPR; koff screen used bacterial extracts of the pMECS-GG construct; also called sdAb15.6His; Nr 15
B2: sdAb 18 (clone 5H2) with carboxy-terminal hexahistidine tag (VHH)
VHH: QVQLQESGGGLAQPGGSLRLSCTASGFTSDYYGIGWFRQAPGKEREGVSCISSSDGSTYYADSVKGRFTISRDNAKNTVYLQMNSLKPEDTAVYYCATRGASCYYTGSYSLGYDYWGQGTQVTVSS
notes: C-terminal 6His for purified-protein SPR; koff screen used bacterial extracts; also called Nr 18
B3: sdAb 16 (clone 5A5) with carboxy-terminal hexahistidine tag (VHH)
VHH: QVQLQESGGGLVQPGGSLRLSCAISGFTLDYYGIGWFRQAPGKEREGVSCISSSDGSTYYADSVKGRFTISRDNAKNTVYLQMNSLKPEDTAVYYCATRGASCYYSGSYSLGYDYWGQGTQVTVSS
notes: C-terminal 6His for purified-protein SPR; koff screen used bacterial extracts; also called Nr 16
B4: sdAb 17 (clone 5B7) with carboxy-terminal hexahistidine tag (VHH)
VHH: QVQLQESGGGLVQPGGSLRLSCAVSGSTLEYYGIGWFRQAPGKEREGVSCISSSDGSTYYADSVKGRFTISRDNAKNTVYLQMNSLKPEDTAVYYCATRGASCYYTGSYSLGYDYWGQGTQVTVSS
notes: C-terminal 6His for purified-protein SPR; koff screen used bacterial extracts; also called Nr 17

Experiments:
[1] = molecular target: T1, canine urokinase plasminogen activator …; assay: SPR (Biacore T200) kinetics, purified sdAb 150-0.62 nM, c uPAR immobilised on CM5, kd/ka
Experimental: (§1) The thermal stability of the sdAbs was determined via a thermal shift assay. Melting temperatures (Tₘ) ranged between 59.5 and 73.6° C. (Table 1). The kinetic parameters (kₐ, Kd, KD) of the purified sdAbs were evaluated via SPR on respectively h and c uPAR recombinant protein (FIG. 10, Table 1). Contrarily to the BE-ELISA results, no h/m or h/m/c cross-reactive sdAbs were identified. […] Finally, their binding to cell-membrane-expressed uPAR was investigated via flow cytometry using 1) h or c uPAR lentivirally transduced HEK293T cells and 2) U87 or HT29 cells with natural h expression. SdAbs showing a significant shift in binding compared to the control conditions (i.e., binding of the non-targeting sdAb R3B23) were further taken into consideration (FIG. 2). Based on the combined results in terms of production yield, stability, binding characteristics, and cross-reactivity, 2 anti-h uPAR (sdAb 3 and 4) and 4 cross-reactive h/c uPAR (sdAb 15, 16, 17 and 18, having respectively SEQ ID NOs: 2, 20, 21, 22) sdAbs were selected for further in vivo evaluation.
(§2) SPR was performed using a Biacore device (Biacore T200; Cytiva). First, the CM5 sensor chip (Biacore, Series S Sensor Chip CM5; Cytiva) was activated with 1-ethyl-3-(3-dimethylaminopropyl) carbodiimide/N-hydroxysuccinimide (EDC/NHS; Amine Coupling Kit; Cytiva). Subsequently, h, m or c uPAR recombinant proteins (5 μg/mL) were immobilized on separate chips at pH 5. The SPR measurements were done at 25° C. in HEPES buffered saline (HBS; Cytiva) as a running buffer, with a flow rate of 30 μL/min. For off-rate screening, the contact time was set at 120 s, dissociation time at 600 s, and the runs were replicated 5 times. […] The association step was allowed for 180 s, the dissociation step for 600 s. For both studies, regeneration of 20 s at 30 μL/min using 0.1 M glycine at pH 2.5 followed by a stabilization period of 60 s, was performed.

[2] = molecular target: T2, human urokinase plasminogen activator receptor, recombinant extracellular domain protein (human, UniProt Q03405 23-303); assay: SPR (Biacore T200) kinetics, purified sdAb 150-0.62 nM, h uPAR immobilised on CM5, kd/ka
T2 construct: Bought recombinant protein (Sino Biological); also called h uPAR; human uPAR
T2 sequence (Q03405 23-303 limits assumed): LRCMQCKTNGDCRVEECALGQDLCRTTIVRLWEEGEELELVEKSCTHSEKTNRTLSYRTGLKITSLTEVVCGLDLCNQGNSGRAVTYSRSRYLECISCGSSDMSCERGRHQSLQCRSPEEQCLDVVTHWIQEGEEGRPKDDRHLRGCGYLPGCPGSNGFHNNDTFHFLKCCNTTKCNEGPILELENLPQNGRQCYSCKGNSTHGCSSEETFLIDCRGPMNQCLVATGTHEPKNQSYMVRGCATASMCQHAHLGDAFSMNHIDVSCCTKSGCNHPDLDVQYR
Experimental: as §1, §2

[3] = molecular target: T1, canine urokinase plasminogen activator …; assay: SPR (Biacore T200) kinetics, purified sdAb 150-0.62 nM, c uPAR immobilised on CM5, 1:1 fit
Experimental: as §1, §2

[4] = molecular target: T2, human urokinase plasminogen activator …; assay: SPR (Biacore T200) kinetics, purified sdAb 150-0.62 nM, h uPAR immobilised on CM5, 1:1 fit
Experimental: as §1, §2

[5] = molecular target: T1, canine urokinase plasminogen activator …; assay: SPR (Biacore T200) off-rate screening of bacterial extract, c uPAR immobilised on CM5; column koff
Experimental: as §2

[6] = molecular target: T2, human urokinase plasminogen activator …; assay: SPR (Biacore T200) off-rate screening of bacterial extract, h uPAR immobilised on CM5; column koff
Experimental: as §2

[7] = molecular target: T1, canine urokinase plasminogen activator …; assay: SPR (Biacore T200) kinetics, purified sdAb 150-0.62 nM, c uPAR immobilised on CM5, 1:1 fit; column kd
Experimental: as §1, §2

[8] = molecular target: T2, human urokinase plasminogen activator …; assay: SPR (Biacore T200) kinetics, purified sdAb 150-0.62 nM, h uPAR immobilised on CM5, 1:1 fit; column kd
Experimental: as §1, §2

Row | Binder | Kd [1] [nM] | Kd [2] [nM] | kon [3] [M⁻¹ s⁻¹] | kon [4] [M⁻¹ s⁻¹] | koff [5] [s⁻¹] | koff [6] [s⁻¹] | koff [7] [s⁻¹] | koff [8] [s⁻¹]
1 | B1 | 12 | 2.1 | 170000 | 1.6e+06 | 0.0065 | 0.0042 | 0.002 | 0.0034
2 | B2 | 34 | 4.7 | 100000 | 840000 | 0.0092 | 0.0031 | 0.0035 | 0.004
3 | B3 | 36 | 3 | 86000 | 500000 | 0.01 | 0.0027 | 0.0031 | 0.0015
4 | B4 | 17 | 2.3 | 120000 | 860000 | 0.0073 | 0.0026 | 0.0019 | 0.0019
